Test results taken from PMC9652377.

Molecular target: β-arrestin-2-YFP, P32121
Experiment: BRET (CXCR4-RLuc / βarr2-YFP) in HEK293T cells
Details: chain shown with the change; CXCL12 1e-6 M (highest concentration of the curve), 15 min; coel-h 10 min; parent: est. 0.11; read off a plot

β-arrestin-2-YFP, P32121, sequence (P32121 whole entry): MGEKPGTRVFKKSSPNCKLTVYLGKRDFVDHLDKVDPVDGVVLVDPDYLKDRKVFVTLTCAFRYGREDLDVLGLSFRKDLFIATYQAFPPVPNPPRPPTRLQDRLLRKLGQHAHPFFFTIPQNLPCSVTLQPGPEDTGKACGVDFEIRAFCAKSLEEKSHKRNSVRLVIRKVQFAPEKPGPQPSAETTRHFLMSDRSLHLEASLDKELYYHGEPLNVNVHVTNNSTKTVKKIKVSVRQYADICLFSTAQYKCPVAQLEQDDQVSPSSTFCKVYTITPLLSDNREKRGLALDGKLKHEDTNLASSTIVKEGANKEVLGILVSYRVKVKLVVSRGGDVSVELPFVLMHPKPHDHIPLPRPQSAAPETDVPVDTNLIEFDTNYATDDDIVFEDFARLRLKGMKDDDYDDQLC

response: 0.09 ΔBRET
B1: chemokine receptor CXCR4 WT, CXCR4-RLuc, P61073 V198F + V197M/V198W (protein)
chain: MEGISIYTSDNYTEEMGSGDYDSMKEPCFREENANFNKIFLPTIYSIIFLTGIVGNGLVILVMGYQKKLRSMTDKYRLHLSVADLLFVITLPFWAVDAVANWYFGNFLCKAVHVIYTVNLYSSVLILAFISLDRYLAIVHATNSQRPRKLLAEKVVYVGVWIPALLLTIPDFIFANVSEADDRYICDRFYPNDLWVMWFQFQHIMVGLILPGIVILSCYCIIISKLSHSKGHQKRKALKTTVILILAFFACWLPYYIGISIDSFILLEIIKQGCEFENTVHKWISITEALAFFHCCLNPILYAFLGAKFKTSAQHALTSVSRGSSLKILSKGKRGGHSSVSTESESSSFHSS
